Experimental data published in publication PMC4775402 (Pharmacological research, 2016).
Where a name gives a salt, the structure may show the parent alone. Each block holds one molecule with its values, some of them ahead of it.

How the values were obtained:
[1] = target: WT HTR2A (Homo sapiens, UniProt P28223); assay: Label-free DMR agonist response, HEK293T expressing WT HTR2A; assay type: cell-based; settings: time to peak DMR
[2] = target: ΔPDZ HTR2A (Homo sapiens, UniProt P28223); assay: Label-free DMR agonist response, HEK293T expressing ΔPDZ HTR2A; assay type: cell-based
[3] = target: WT C3AR1 (Homo sapiens, UniProt Q16581); assay: Label-free DMR agonist response, HEK293T expressing WT C3AR1; assay type: cell-based
[4] = target: ΔPDZ C3AR1 (Homo sapiens, UniProt Q16581); assay: Label-free DMR agonist response, HEK293T expressing ΔPDZ C3AR1; assay type: cell-based
[5] = target: WT HRH3 (Homo sapiens, UniProt Q9Y5N1); settings: HEK293T
[6] = target: ΔPDZ HRH3 (Homo sapiens, UniProt Q9Y5N1); settings: HEK293T
[7] = target: WT S1PR2 (Homo sapiens, UniProt O95136); assay: Label-free DMR agonist response, HEK293T expressing WT S1PR2; assay type: cell-based
[8] = target: ΔPDZ S1PR2 (Homo sapiens, UniProt O95136); assay: Label-free DMR agonist response, HEK293T expressing ΔPDZ S1PR2; assay type: cell-based
[9] = test system: WT ADRA1D; settings: cited from earlier work
[10] = test system: ΔPDZ ADRA1D; settings: cited from earlier work
[11] = target: T1, WT CXCR1 (Homo sapiens, UniProt P25024); assay: Label-free DMR agonist response, HEK293T expressing WT CXCR1; assay type: cell-based
T1 sequence (P25024 1-350): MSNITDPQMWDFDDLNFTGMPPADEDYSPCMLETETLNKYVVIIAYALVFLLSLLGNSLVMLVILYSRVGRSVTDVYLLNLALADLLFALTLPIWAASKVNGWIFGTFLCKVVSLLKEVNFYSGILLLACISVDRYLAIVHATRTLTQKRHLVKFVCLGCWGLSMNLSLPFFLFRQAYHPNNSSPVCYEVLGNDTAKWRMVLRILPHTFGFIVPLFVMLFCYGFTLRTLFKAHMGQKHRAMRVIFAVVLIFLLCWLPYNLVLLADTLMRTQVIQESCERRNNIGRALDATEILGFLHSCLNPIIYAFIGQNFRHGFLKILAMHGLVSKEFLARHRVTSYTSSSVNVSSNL

[12] = target: T2, ΔPDZ CXCR1 (Homo sapiens, UniProt P25024); assay: Label-free DMR agonist response, HEK293T expressing ΔPDZ CXCR1; assay type: cell-based
T2 sequence (P25024 1-346 limits assumed): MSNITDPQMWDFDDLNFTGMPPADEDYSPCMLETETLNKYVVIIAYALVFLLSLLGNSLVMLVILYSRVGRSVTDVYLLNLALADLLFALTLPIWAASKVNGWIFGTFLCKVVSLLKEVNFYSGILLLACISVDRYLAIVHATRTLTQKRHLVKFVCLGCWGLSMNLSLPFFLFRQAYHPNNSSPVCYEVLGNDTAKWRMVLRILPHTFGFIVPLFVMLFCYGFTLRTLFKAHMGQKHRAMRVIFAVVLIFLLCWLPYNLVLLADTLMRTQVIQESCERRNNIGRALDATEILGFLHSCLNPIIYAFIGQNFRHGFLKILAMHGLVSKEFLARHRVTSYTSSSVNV

[13] = target: T3, WT CXCR2 (Homo sapiens, UniProt P25025); assay: Label-free DMR agonist response, HEK293T expressing WT CXCR2; assay type: cell-based
T3 sequence (P25025 1-360): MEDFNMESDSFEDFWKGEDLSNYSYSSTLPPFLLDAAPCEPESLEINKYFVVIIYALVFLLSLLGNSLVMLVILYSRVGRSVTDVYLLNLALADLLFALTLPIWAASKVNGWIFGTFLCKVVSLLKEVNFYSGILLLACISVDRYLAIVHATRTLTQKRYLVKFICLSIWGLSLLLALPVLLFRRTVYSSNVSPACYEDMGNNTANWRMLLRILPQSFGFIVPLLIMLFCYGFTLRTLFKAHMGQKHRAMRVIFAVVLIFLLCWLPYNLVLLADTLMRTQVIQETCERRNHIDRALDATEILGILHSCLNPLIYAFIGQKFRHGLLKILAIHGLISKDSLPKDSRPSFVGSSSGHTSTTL

[14] = target: T4, ΔPDZ CXCR2 (Homo sapiens, UniProt P25025); assay: Label-free DMR agonist response, HEK293T expressing ΔPDZ CXCR2; assay type: cell-based
T4 sequence (P25025 1-356 limits assumed): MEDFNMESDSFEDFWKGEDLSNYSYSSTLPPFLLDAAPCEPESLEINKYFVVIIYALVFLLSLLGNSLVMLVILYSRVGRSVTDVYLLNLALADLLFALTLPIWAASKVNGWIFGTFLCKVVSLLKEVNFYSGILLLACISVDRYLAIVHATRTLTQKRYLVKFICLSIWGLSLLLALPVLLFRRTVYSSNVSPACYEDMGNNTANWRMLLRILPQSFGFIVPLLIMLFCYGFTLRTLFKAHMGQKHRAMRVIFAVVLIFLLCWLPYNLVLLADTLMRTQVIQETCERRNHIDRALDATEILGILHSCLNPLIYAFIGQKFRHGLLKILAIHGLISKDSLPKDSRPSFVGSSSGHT

[15] = target: T5, WT CXCR3 (Homo sapiens, UniProt P49682); assay: Label-free DMR agonist response, HEK293T expressing WT CXCR3; assay type: cell-based
T5 sequence (P49682 1-368): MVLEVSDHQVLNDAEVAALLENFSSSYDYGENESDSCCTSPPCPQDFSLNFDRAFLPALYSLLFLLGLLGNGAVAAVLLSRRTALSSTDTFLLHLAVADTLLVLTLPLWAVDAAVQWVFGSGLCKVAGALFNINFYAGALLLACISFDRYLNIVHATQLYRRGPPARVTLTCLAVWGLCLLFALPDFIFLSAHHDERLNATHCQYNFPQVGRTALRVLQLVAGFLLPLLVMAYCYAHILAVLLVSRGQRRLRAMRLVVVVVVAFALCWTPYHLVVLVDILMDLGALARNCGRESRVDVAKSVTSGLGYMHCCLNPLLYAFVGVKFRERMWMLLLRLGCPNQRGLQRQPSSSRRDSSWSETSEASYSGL

[16] = target: T6, ΔPDZ CXCR3 (Homo sapiens, UniProt P49682); assay: Label-free DMR agonist response, HEK293T expressing ΔPDZ CXCR3; assay type: cell-based
T6 sequence (P49682 1-364 limits assumed): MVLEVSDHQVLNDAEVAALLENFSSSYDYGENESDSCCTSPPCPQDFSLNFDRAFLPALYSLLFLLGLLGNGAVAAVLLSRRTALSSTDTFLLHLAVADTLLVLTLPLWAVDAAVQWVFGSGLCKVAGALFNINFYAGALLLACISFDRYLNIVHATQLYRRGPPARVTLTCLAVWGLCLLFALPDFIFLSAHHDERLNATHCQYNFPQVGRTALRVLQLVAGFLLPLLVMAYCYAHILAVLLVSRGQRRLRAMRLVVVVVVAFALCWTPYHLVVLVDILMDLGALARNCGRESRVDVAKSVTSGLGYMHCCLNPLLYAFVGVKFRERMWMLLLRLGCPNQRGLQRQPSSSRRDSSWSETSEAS

[17] = target: T7, WT CXCR5 (Homo sapiens, UniProt P32302); assay: Label-free DMR agonist response, HEK293T expressing WT CXCR5; assay type: cell-based
T7 sequence (P32302 1-372): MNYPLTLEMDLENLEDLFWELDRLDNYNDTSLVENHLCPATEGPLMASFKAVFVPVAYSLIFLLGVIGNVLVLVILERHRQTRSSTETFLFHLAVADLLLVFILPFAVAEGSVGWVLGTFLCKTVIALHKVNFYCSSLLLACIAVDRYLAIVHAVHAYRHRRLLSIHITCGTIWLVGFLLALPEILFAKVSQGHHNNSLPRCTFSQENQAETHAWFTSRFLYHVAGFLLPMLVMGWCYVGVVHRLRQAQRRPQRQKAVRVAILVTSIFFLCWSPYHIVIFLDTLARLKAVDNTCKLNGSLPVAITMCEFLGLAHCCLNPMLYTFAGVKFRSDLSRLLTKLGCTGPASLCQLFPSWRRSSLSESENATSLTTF

[18] = target: T8, ΔPDZ CXCR5 (Homo sapiens, UniProt P32302); assay: Label-free DMR agonist response, HEK293T expressing ΔPDZ CXCR5; assay type: cell-based
T8 sequence (P32302 1-368 limits assumed): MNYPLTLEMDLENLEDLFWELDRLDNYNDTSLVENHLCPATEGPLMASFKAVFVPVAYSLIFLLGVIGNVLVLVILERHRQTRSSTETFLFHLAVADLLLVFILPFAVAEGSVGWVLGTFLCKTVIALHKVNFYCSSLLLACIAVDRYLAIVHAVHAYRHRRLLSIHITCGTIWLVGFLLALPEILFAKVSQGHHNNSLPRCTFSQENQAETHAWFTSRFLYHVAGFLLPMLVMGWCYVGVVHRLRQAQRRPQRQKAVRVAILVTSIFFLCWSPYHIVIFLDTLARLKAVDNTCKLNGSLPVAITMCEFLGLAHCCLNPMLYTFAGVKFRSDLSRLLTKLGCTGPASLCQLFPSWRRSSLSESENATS

Chain of ΔPDZ HRH3 (Q9Y5N1 1-449 isoform Q9Y5N1-2): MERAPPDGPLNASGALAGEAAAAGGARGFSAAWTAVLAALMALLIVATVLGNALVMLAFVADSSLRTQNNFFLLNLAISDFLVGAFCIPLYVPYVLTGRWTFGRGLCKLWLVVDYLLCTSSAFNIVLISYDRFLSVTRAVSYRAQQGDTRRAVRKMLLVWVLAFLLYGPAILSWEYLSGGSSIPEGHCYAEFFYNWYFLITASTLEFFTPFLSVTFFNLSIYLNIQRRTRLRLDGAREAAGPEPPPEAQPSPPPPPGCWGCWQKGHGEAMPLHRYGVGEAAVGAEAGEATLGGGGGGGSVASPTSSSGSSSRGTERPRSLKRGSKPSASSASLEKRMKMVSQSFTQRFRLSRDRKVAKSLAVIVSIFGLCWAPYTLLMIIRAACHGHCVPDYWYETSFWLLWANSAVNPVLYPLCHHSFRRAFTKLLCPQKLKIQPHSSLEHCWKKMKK
Chain of WT S1PR2 (O95136 whole entry): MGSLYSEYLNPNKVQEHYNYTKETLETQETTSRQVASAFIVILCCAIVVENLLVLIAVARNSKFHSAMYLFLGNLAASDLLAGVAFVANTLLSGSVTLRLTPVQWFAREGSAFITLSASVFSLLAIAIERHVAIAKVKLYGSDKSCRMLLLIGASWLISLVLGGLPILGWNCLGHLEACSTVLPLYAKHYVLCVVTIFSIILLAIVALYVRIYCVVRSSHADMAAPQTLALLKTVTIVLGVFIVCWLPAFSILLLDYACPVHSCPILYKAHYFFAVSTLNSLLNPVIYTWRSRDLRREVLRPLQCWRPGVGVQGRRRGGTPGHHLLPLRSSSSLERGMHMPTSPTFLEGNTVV
Chain of ΔPDZ HTR2A (P28223 1-467 limits assumed, stated change not applied): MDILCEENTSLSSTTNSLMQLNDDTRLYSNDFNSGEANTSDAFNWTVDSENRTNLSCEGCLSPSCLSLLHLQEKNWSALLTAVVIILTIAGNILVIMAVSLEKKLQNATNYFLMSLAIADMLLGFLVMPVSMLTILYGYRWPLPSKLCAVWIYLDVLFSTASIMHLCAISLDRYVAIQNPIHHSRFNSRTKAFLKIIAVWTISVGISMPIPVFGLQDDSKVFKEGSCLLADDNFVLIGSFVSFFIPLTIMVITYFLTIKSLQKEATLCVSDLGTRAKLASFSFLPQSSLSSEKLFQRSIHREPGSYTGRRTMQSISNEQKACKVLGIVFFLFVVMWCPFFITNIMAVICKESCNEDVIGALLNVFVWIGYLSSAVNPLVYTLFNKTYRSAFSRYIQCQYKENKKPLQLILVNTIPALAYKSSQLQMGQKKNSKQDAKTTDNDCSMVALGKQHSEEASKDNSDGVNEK
Chain of ΔPDZ S1PR2 (O95136 1-349 limits assumed, stated change not applied): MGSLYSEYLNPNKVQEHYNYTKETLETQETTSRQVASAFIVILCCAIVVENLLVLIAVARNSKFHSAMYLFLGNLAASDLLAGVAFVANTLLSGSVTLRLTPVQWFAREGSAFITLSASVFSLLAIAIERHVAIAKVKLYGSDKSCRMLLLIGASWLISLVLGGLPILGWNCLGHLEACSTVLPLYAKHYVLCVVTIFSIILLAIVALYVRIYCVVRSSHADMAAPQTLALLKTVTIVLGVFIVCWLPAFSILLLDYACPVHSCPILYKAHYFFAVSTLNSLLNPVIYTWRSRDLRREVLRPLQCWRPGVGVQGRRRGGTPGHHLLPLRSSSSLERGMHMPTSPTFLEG
Chain of ΔPDZ C3AR1 (Q16581 1-478 limits assumed, stated change not applied): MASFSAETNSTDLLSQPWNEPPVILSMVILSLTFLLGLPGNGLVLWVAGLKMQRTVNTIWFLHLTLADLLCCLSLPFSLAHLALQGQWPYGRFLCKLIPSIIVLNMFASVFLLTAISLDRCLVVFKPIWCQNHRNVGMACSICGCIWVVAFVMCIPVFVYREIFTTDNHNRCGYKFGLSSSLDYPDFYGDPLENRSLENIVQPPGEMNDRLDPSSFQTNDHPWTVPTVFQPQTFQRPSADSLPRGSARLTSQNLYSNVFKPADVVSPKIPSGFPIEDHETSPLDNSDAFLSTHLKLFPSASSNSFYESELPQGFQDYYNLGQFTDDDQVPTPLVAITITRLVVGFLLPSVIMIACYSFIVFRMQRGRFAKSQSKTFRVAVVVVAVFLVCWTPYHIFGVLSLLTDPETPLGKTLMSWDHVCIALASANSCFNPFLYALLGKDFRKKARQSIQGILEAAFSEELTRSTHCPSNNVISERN
Chain of WT C3AR1 (Q16581 whole entry): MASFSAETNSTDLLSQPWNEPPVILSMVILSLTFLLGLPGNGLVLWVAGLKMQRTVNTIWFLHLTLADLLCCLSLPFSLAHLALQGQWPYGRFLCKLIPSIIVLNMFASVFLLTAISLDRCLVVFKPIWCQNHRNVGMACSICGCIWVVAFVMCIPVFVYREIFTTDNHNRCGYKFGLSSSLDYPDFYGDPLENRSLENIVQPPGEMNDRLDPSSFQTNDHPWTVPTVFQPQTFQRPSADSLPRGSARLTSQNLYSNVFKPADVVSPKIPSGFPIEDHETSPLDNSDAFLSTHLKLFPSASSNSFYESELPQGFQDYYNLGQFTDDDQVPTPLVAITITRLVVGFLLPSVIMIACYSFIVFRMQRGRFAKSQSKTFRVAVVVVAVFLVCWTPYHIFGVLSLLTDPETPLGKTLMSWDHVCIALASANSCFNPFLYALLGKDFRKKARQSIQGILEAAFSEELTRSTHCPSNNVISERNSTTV
Chain of WT HRH3 (Q9Y5N1 1-453 isoform Q9Y5N1-2): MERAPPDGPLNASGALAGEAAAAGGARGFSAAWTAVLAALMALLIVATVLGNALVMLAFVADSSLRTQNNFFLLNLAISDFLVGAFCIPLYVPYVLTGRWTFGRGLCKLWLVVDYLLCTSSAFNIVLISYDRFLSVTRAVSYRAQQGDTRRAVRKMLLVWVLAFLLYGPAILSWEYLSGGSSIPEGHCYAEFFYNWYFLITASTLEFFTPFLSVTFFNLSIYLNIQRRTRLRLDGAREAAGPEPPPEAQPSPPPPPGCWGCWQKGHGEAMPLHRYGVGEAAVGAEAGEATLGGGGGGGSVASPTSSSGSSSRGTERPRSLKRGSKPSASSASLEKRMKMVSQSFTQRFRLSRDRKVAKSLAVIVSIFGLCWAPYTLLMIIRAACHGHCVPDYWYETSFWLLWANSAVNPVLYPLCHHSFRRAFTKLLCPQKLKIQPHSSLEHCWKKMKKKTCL
Chain of WT HTR2A (P28223 whole entry): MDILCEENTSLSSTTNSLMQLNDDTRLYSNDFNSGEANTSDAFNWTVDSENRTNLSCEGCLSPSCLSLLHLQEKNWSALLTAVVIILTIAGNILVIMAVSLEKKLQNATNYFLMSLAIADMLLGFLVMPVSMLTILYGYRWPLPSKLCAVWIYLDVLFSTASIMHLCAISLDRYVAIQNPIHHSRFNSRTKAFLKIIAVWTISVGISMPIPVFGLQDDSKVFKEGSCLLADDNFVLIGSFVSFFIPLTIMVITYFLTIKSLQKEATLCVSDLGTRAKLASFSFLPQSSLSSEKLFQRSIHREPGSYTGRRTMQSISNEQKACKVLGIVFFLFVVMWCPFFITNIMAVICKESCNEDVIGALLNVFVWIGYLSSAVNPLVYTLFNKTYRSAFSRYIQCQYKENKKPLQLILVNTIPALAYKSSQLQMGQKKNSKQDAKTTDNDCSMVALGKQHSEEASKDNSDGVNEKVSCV

Molecule: Cl.NCCc1c[nH]c2ccc(O)cc12 [5-hydroxytryptamine, 5-hydroxytryptamine hydrochloride]
WT TTP [1]: 14.10 s
ΔPDZ Max (DMR) ([2]; maximal agonist DMR response): 106.10 ± 3.96
ΔPDZ TTP ([2]; time to peak DMR): 14.70 s

Molecule: NC(=O)Cc1ccccc1 [Benzeneacetamide, benzeneacetamide]
WT Max (DMR) ([3]; WT C3AR1, maximal agonist DMR response): 36.90 ± 1.82
WT TTP ([3]; WT C3AR1, time to peak DMR): 4.50 s
ΔPDZ Max (DMR) ([4]; ΔPDZ C3AR1, maximal agonist DMR response): 38.77 ± 2.59
ΔPDZ TTP ([4]; ΔPDZ C3AR1, time to peak DMR): 3.50 s

Molecule: NCCc1c[nH]cn1 [Histamine, histamine dihydrochloride]
WT Max (DMR) ([5]; WT HRH3, maximal agonist DMR response): 46.97 ± 3.71
WT TTP ([5]; WT HRH3, time to peak DMR): 7.30 s
ΔPDZ Max (DMR) ([6]; ΔPDZ HRH3, maximal agonist DMR response): 60.19 ± 5.07
ΔPDZ TTP ([6]; ΔPDZ HRH3, time to peak DMR): 6.30 s

Molecule: CNC[C@H](O)c1cccc(O)c1 [phenylephrine]
enhancement of the DMR response ([9]; ADRA1D with overexpression of SCRIB alone): ~5 fold
activation, DMR (in words) ([9]; WT ADRA1D): weak activation
activation, DMR (in words) [10]: weak activation

Continued, values first:

WT Max (DMR) ([7]; WT S1PR2, maximal agonist DMR response): −40.54 ± 3.76
WT TTP ([7]; WT S1PR2, time to peak DMR): 17.61 s
ΔPDZ Max (DMR) ([8]; ΔPDZ S1PR2, maximal agonist DMR response): −10.16 ± 4.91
ΔPDZ TTP ([8]; ΔPDZ S1PR2, time to peak DMR): 16.31 s
Molecule: CCCCCCCCCCCCC/C=C/[C@@H](O)[C@@H](N)COP(=O)(O)O [Sphingosine-1-phosphate, sphingosine-1-phosphate]

WT pEC50 ([11]; WT CXCR1, DMR CRC): −8.29 ± 0.07
WT Max (DMR) ([11]; WT CXCR1, maximal agonist DMR response): 69.69 ± 1.88
WT TTP ([11]; WT CXCR1, time to peak DMR): 3.60 s
ΔPDZ pEC50 ([12]; ΔPDZ CXCR1, DMR CRC): −7.08 ± 0.45
ΔPDZ Max (DMR) ([12]; ΔPDZ CXCR1, maximal agonist DMR response): 9.48 ± 1.53
ΔPDZ TTP ([12]; ΔPDZ CXCR1, time to peak DMR): 3.80 s
WT pEC50 ([13]; WT CXCR2, DMR CRC): −8.53 ± 0.11
WT Max (DMR) ([13]; WT CXCR2, maximal agonist DMR response): 34.89 ± 2.08
WT TTP ([13]; WT CXCR2, time to peak DMR): 3.20 s
ΔPDZ pEC50 ([14]; ΔPDZ CXCR2, DMR CRC): −8.45 ± 0.13
ΔPDZ Max (DMR) ([14]; ΔPDZ CXCR2, maximal agonist DMR response): 37.50 ± 2.20
ΔPDZ TTP ([14]; ΔPDZ CXCR2, time to peak DMR): 3.50 s
WT Max (DMR) ([15]; WT CXCR3, maximal agonist DMR response): 10.17 ± 2.00
WT TTP ([15]; WT CXCR3, time to peak DMR): 11.70 s
ΔPDZ Max (DMR) ([16]; ΔPDZ CXCR3, maximal agonist DMR response): 18.3 ± 3.16
ΔPDZ TTP ([16]; ΔPDZ CXCR3, time to peak DMR): 15.60 s
WT pEC50 ([17]; WT CXCR5, DMR CRC): −10.34 ± 0.16
WT Max (DMR) ([17]; WT CXCR5, maximal agonist DMR response): 23.22 ± 1.80
WT TTP ([17]; WT CXCR5, time to peak DMR): 2.50 s
ΔPDZ pEC50 ([18]; ΔPDZ CXCR5, DMR CRC): −9.97 ± 0.12
ΔPDZ Max (DMR) ([18]; ΔPDZ CXCR5, maximal agonist DMR response): 40.70 ± 2.54
ΔPDZ TTP ([18]; ΔPDZ CXCR5, time to peak DMR): 2.30 s
Molecule: interleukin-8
